Measured values as given in patent JP2000236884A.

Molecular target: ヒトIL−18 (human interleukin-18, polypeptide having the amino acid sequence of SEQ ID NO 21) (human), Q14116
Test: cell-based or functional assay
Settings: scale: fold molar concentration against #125-2HmAb

- molar concentration needed for the same IL-18 neutralisation as #125-2HmAb (IFN-γ induction in KG-1 cells): 2
B1: scFv peptide with His6 of Example 2-2, encoded by pEscFv#125-2H.HT (SEQ ID NO 10) (scFv)
scFv: EIQLQQSGPELVKPGASVKVSCKASGYSFTDYFIYWVKQSHGKSLEWIGDIDPYNGDTSYNQKFRDKATLTVDQSSTTAFMHLNSLTSEDSAVYFCARGLRFWGQGTLVTVSAGGGGGGSGGGGSGGGGSDIQMTQSPSSLSASLGERVSLTCRASQDIGSKLYWLQQEPDGTFKRLIYATSSLDSGVPKRFSGSRSGSDYSLTISSLESEDFVDYYCLQYASSPYTFGGGTKLAIKHHHHHH
